The text below walks through data of patent publication US20260103629A1 (YALE UNIVERSITY, published 2026).

The test has as its target T1, asialofetuin (Sigma-Aldrich A4781), coated on glass (UniProt P12763 19-359, an extensively glycosylated protein (so in the source)).
T1 construct: also called asialofetuin-coated surface
T1 sequence: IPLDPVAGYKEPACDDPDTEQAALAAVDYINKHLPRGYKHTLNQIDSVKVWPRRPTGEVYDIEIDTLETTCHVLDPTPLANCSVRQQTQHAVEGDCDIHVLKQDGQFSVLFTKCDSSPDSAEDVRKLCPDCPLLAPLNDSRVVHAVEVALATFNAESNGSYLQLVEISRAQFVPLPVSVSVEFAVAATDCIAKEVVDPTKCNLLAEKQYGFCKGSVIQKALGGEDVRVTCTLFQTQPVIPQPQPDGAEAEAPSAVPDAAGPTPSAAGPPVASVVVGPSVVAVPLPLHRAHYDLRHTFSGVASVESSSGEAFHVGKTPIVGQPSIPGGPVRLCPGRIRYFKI
Briefly: in situ anti-FLAG immunostaining of biofilms grown on asialofetuin-coated glass.

B1: Bap1 (Biofilm-Associated Protein 1 of V. cholerae, wild type), tagged with 3xFLAG at the C-terminus (other)
chain: SSSSDIQTKLKWSWSTSVFHPESNQVMAAPIVVQLNDDNGDGKIDEKDVADIIVVTFEGNKYANGGYIRALSGVDGSELWSYSNGGVIADARYAPAAADLDGDGLIEIVSTSALTPYINILDHQGNIKKQLLKSASGWRSVGDIALADINGDGNIEILAADGVYSYESGLLFSHDWAPSSIAFDSNGDGQREVFANGTLYQNNGAYLWQYQANDTVWFSSVANLDGDDKPELVVSVPASLSTPENSEIAVLEHDGSVKWRVNNLSNPGGSVQAVSSFLGKPSSSATTVDAQSAVYGYTDWAHQQRVLAENHQLAIRSGAVVDAIGANSQNMIGGSGGSLSTIDTSKVRAIDVTYGKNKYTWKYGVLEMSFTLDNGAKVTVGSKDSAFTYLGLEWKTKTVPYLGVEWRTKTVSYWFFGWHTKQVAYLAPVWKEKTIPYAVPVTLSKSTTVRYDIPQGSQLLGMNVWSKEKHLFKHKQQVNAVQFLVGKVTADQSHMGIVYAGYYAVDMYDAQGNKVWSVANDDLNSGKIGVSAYDFTGDGIDEVLVQDRLRMRILDGQTGRVMGIIANSSGTLWEYPVVADLEGNNNASLIMVANDYDRESQVNHGVFVYESANPSKPWRNATRIWNQYAFNFSDINANGTIPTNAQPSWLTHNSFRSATIRVPLK
notes: also called VC1888; WT Bap1; not shown: C-terminal 3xFLAG tag
As for B1, the binding result was “no binding”.
